Values of other authors as cited in PMC4664823.

Assays:
Asp14 = Asp14 (UniProt position 14, GAILADVIGTT); conditions: competition between substrate and protons; various preparations in earlier work
Glu14 = Glu14 (UniProt position 14, GAILAEVIGTT); conditions: competition between substrate and protons; various preparations in earlier work

Substance: E14D-EmrE (Escherichia coli; E14D)
- pKa (Asp14): ≈5.0–6.7 and ≈5.4

Substance: EmrE (small multidrug resistance transporter), wild type (Escherichia coli)
- pKa (Glu14): 6.8 to 8.5 and ≈7.3
